Experimental data published in PMC4728340, “Structure of the polyisoprenyl-phosphate glycosyltransferase GtrB and insights into the mechanism of catalysis” (Nature Communications, 2016).
Numbering of substitutions follows the chain as printed. Names may count otherwise.

B1: GtrB from Synechocystis sp. PCC6803 (enzyme, Synechocystis sp. PCC 6803, UniProt Q55487 1-318, looked up)
chain: MTIELSIVIPMYNEEDNLEHLFARLLEVLTPLKITYEIICVNDGSKDKTLKQLIDCYQSNRQIKIVNLSRNFGKEIALSAGIDYAQGNAVIPIDADLQDPPELIHELVDKWREGYDIVYATRRSRQGETWVKQFTAKMFYKVIGRMTEIKIPPNTGDFRLMDRKVVNAIKQLPERTRFMKGLFAWVGYRQTFVLFDREPRFQGQTKWNYWKLWNFALDGIFSFSLLPLKVWTYLGSIISLLSLAYASFLILKTITLGVDVPGYASLMVAILFLGGVQLISLGVIGEYLGRVYEEVKARPLYLVSDLWGLEYLPLEKLN
notes: GtrB, polyisoprenyl-phosphate glycosyltransferase, Synechocystis sp; PCC 6803, UniProt Q55487; open reading frame amplified from genomic DNA; a TEV protease cleavage site stands between the tag and the protein; Vector pMCSG7; A selenomethionine-substituted form was used for phasing only; In the deposited coordinates each protomer is divided into two chains; also called GtrBSyn; WT
B2: GtrB from Synechocystis sp. PCC6803, point mutant F215A (enzyme, Synechocystis sp. PCC 6803, UniProt Q55487 1-318, looked up)
chain: B1 chain with F215A
notes: GtrB, Synechocystis sp; PCC 6803, UniProt Q55487, same construct as m1 with the point mutation F215A (QuikChange); also called GtrB (F215A); source: E. coli, purified and crystallized in the same way as the wild type

Biological target: the molecule itself
Experiment: crystal structure; purified protein in n-decyl-beta-D-maltopyranoside (DM); sitting drop vapour diffusion at 22 °C, 16-18% PEG600, 0.12 M Tris/HCl pH 9.0, 0.1 M NaCl, 1 mM TCEP; crystals soaked with 5 mM MnCl2 and 25 mM UDP-glucose; space group C2, one tetramer in the asymmetric unit

| Protein | stoichiometry N | binding result |
| --- | --- | --- |
| B1 | 4 |  |
| B2 |  | binds |
